Results as given in IntAct's records for PubMed 21673656.

B1: Flagellar motor switch protein FliG (Escherichia coli (strain K12)), P0ABZ1 (parent)
chain: MSNLTGTDKSVILLMTIGEDRAAEVFKHLSQREVQTLSAAMANVTQISNKQLTDVLAEFEQEAEQFAALNINANDYLRSVLVKALGEERAASLLEDILETRDTASGIETLNFMEPQSAADLIRDEHPQIIATILVHLKRAQAADILALFDERLRHDVMLRIATFGGVQPAALAELTEVLNGLLDGQNLKRSKMGGVRTAAEIINLMKTQQEEAVITAVREFDGELAQKIIDEMFLFENLVDVDDRSIQRLLQEVDSESLLIALKGAEQPLREKFLRNMSQRAADILRDDLANRGPVRLSQVENEQKAILLIVRRLAETGEMVIGSGEDTYV
partner: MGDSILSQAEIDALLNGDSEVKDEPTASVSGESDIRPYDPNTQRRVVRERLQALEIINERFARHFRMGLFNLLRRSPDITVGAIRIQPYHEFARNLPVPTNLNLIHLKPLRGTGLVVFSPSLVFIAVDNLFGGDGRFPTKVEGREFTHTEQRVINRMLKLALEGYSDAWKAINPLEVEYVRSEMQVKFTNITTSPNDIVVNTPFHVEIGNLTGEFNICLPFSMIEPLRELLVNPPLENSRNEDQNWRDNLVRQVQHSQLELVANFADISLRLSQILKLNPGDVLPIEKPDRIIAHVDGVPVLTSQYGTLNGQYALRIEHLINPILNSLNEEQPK
B2: Flagellar motor switch protein FliM (Escherichia coli (strain K12)), P06974 (parent)
chain: B1 partner
partner: B1 chain

Variants of: B1
Details: with flim_ecoli fliM

| Variant | effect of a mutation on the interaction |
| --- | --- |
| MSNLTGTDKSVILLMTIGEDRAAEVFKHLSQREVQTLSAAMANVTQISNKQLTDVLAEFEQEAEQFAALNINANDYLRSVLVKALGEERAASLLEDILETRDTASGIETLNFMEPQSAADLIRDEHPQIIATILVHLKRAQAADILALFDERLRHDVMLRIATFGGVQPAALAELTEVLNGLLDGQNLKRSKMGGVRTAAEIINLMKTQQEEAVITAVREFDGEWAQKIIDEMFLFENLVDVDDRSIQRLLQEVDSESLLIALKGAEQPLREKFLRNMSQRAADILRDDLANRGPVRLSQVENEQKAILLIVRRLAETGEMVIGSGEDTYV [L225W] | disrupting interaction |

Variants of: B1
Details: with flim_ecoli fliM
Remark: another data set of the same source

| Variant | effect of a mutation on the interaction |
| --- | --- |
| MSNLTGTDKSVILLMTIGEDRAAEVFKHLSQREVQTLSAAMANVTQISNKQLTDVLAEFEQEAEQFAALNINANDYLRSVLVKALGEERAASLLEDILETRDTASGIETLNFMEPQSAADLIRDEHPQIIATILVHLKRAQAADILALFDERLRHDVMLRIATFGGVQPAALAELTEVLNGLLDGQNLKRSKMGGVRTAAEWINLMKTQQEEAVITAVREFDGELAQKIIDEMFLFENLVDVDDRSIQRLLQEVDSESLLIALKGAEQPLREKFLRNMSQRAADILRDDLANRGPVRLSQVENEQKAILLIVRRLAETGEMVIGSGEDTYV [I202W] | disrupting interaction |

Variants of: B1
Details: with flim_ecoli fliM, P06974

| Variant | effect of a mutation on the interaction |
| --- | --- |
| MSNLTGTDKSVILLMTIGEDRAAEVFKHLSQREVQTLSAAMANVTQISNKQLTDVLAEFEQEAEQFAALNINANDYLRSVLVKALGEERAASLLEDILETRDTASGIETLNFMEPQSAADLIRDEHPQCIATILVHLKRAQAADILALFDERLRHDVMLRIATFGGVQPAALAELTEVLNGLLDGQNLKRSKMGGVRTAAEIINLMKTQQEEAVITAVREFDGELAQKIIDEMFLFENLVDVDDRSIQRLLQEVDSESLLIALKGAEQPLREKFLRNMSQRAADILRDDLANRGPVRLSQVENEQKAILLIVRRLAETGEMVIGSGEDTYV [I129C] | increasing interaction |

Variants of: B1
Details: with flim_ecoli fliM, P06974
Remark: another data set of the same source

| Variant | effect of a mutation on the interaction |
| --- | --- |
| MSNLTGTDKSVILLMTIGEDRAAEVFKHLSQREVQTLSAAMANVTQISNKQLTDVLAEFEQEAEQFAALNINANDYLRSVLVKALGEERAASLLEDILETRDTASGIETLNFMEPQSAADLIRDEHPQIIATILVHLKRAQAADILALFDERLRHDVMLRIATFGGVQPAALAELTEVLNGLLDGQNLKRSKMGGVRTAAEIINLCKTQQEEAVITAVREFDGELAQKIIDEMFLFENLVDVDDRSIQRLLQEVDSESLLIALKGAEQPLREKFLRNMSQRAADILRDDLANRGPVRLSQVENEQKAILLIVRRLAETGEMVIGSGEDTYV [M206C] | increasing interaction |

Variants of: B1
Details: with flim_ecoli fliM
Remark: another data set of the same source

| Variant | effect of a mutation on the interaction |
| --- | --- |
| MSNLTGTDKSVILLMTIGEDRAAEVFKHLSQREVQTLSAAMANVTQISNKQLTDVLAEFEQEAEQFAALNINANDYLRSVLVKALGEERAASLLEDILETRDTASGIETLNFMEPQSAADLIRDEHPQIIATILVHLKRAQAADILALFDERLRHDVMLRIATFGGVQPAALAELTEVLNGLLDGQNLKRSKMGGVRTAAEIINLMKTQQEEAVITAVREFDGECAQKIIDEMFLFENLVDVDDRSIQRLLQEVDSESLLIALKGAEQPLREKFLRNMSQRAADILRDDLANRGPVRLSQVENEQKAILLIVRRLAETGEMVIGSGEDTYV [L225C] | increasing interaction |

Variants of: B2
Details: with flig_ecoli fliG

| Variant | effect of a mutation on the interaction |
| --- | --- |
| MGDSILSQAEIDALLNGDSEVKDEPTASVSGESDIRPYDPNTQRRVVRERLQALEIINERFARHFRMGLFNLLRRSPDITVGAIRIQPYHEFARNLPVPTNLNLIHLKPLRGTGLVVFSPSLVFIAVDNLDGGDGRFPTKVEGREFTHTEQRVINRMLKLALEGYSDAWKAINPLEVEYVRSEMQVKFTNITTSPNDIVVNTPFHVEIGNLTGEFNICLPFSMIEPLRELLVNPPLENSRNEDQNWRDNLVRQVQHSQLELVANFADISLRLSQILKLNPGDVLPIEKPDRIIAHVDGVPVLTSQYGTLNGQYALRIEHLINPILNSLNEEQPK [F131D] | disrupting interaction |

Variants of: B2
Details: with flig_ecoli fliG
Remark: another data set of the same source

| Variant | effect of a mutation on the interaction |
| --- | --- |
| MGDSILSQAEIDALLNGDSEVKDEPTASVSGESDIRPYDPNTQRRVVRERLQALEIINERFARHFRMGLFNLLRRSPDITVGAIRIQPYHEFARNLPVPTNLNLIHLKPLRGTGLVVFSPSLVFIAVDNLFGWDGRFPTKVEGREFTHTEQRVINRMLKLALEGYSDAWKAINPLEVEYVRSEMQVKFTNITTSPNDIVVNTPFHVEIGNLTGEFNICLPFSMIEPLRELLVNPPLENSRNEDQNWRDNLVRQVQHSQLELVANFADISLRLSQILKLNPGDVLPIEKPDRIIAHVDGVPVLTSQYGTLNGQYALRIEHLINPILNSLNEEQPK [G133W] | disrupting interaction |

Variants of: B2
Details: with flig_ecoli fliG
Remark: another data set of the same source

| Variant | effect of a mutation on the interaction |
| --- | --- |
| MGDSILSQAEIDALLNGDSEVKDEPTASVSGESDIRPYDPNTQRRVVRERLQALEIINERFARHFRMGLFNLLRRSPDITVGAIRIQPYHEFARNLPVPTNLNLIHLKPLRGTGLVVFSPSLVFIAVDNLFGGDGRFPTKVEGREFTHTEQRVINDMLKLALEGYSDAWKAINPLEVEYVRSEMQVKFTNITTSPNDIVVNTPFHVEIGNLTGEFNICLPFSMIEPLRELLVNPPLENSRNEDQNWRDNLVRQVQHSQLELVANFADISLRLSQILKLNPGDVLPIEKPDRIIAHVDGVPVLTSQYGTLNGQYALRIEHLINPILNSLNEEQPK [R156D] | disrupting interaction |

Variants of: B2
Details: with flig_ecoli fliG
Remark: another data set of the same source

| Variant | effect of a mutation on the interaction |
| --- | --- |
| MGDSILSQAEIDALLNGDSEVKDEPTASVSGESDIRPYDPNTQRRVVRERLQALEIINERFARHFRMGLFNLLRRSPDITVGAIRIQPYHEFARNLPVPTNLNLIHLKPLRGTGLVVFSPSLVFIAVDNLFGGDGRFPTKVEGREFTHDEQRVINRMLKLALEGYSDAWKAINPLEVEYVRSEMQVKFTNITTSPNDIVVNTPFHVEIGNLTGEFNICLPFSMIEPLRELLVNPPLENSRNEDQNWRDNLVRQVQHSQLELVANFADISLRLSQILKLNPGDVLPIEKPDRIIAHVDGVPVLTSQYGTLNGQYALRIEHLINPILNSLNEEQPK [T149D] | decreasing interaction |

Variants of: B2
Details: with flig_ecoli fliG
Remark: another data set of the same source

| Variant | effect of a mutation on the interaction |
| --- | --- |
| MGDSILSQAEIDALLNGDSEVKDEPTASVSGESDIRPYDPNTQRRVVRERLQALEIINERFARHFRMGLFNLLRRSPDITVGAIRIQPYHEFARNLPVPTNLNLIHLKPLRGTGLVVFSPSLVFIAVDNLFGGDGRFPTKVEGREFTHTEQRDINRMLKLALEGYSDAWKAINPLEVEYVRSEMQVKFTNITTSPNDIVVNTPFHVEIGNLTGEFNICLPFSMIEPLRELLVNPPLENSRNEDQNWRDNLVRQVQHSQLELVANFADISLRLSQILKLNPGDVLPIEKPDRIIAHVDGVPVLTSQYGTLNGQYALRIEHLINPILNSLNEEQPK [V153D] | decreasing interaction |

Variants of: B2
Details: with flig_ecoli fliG
Remark: another data set of the same source

| Variant | effect of a mutation on the interaction |
| --- | --- |
| MGDSILSQAEIDALLNGDSEVKDEPTASVSGESDIRPYDPNTQRRVVRERLQALEIINERFARHFRMGLFNLLRRSPDITVGAIRIQPYHEFARNLPVPTNLNLIHLKPLRGTGLVVFSPSLVFIAVDNLFGGDGRFPTKVEGREFTHTEQRVINRMLKEALEGYSDAWKAINPLEVEYVRSEMQVKFTNITTSPNDIVVNTPFHVEIGNLTGEFNICLPFSMIEPLRELLVNPPLENSRNEDQNWRDNLVRQVQHSQLELVANFADISLRLSQILKLNPGDVLPIEKPDRIIAHVDGVPVLTSQYGTLNGQYALRIEHLINPILNSLNEEQPK [L160E] | decreasing interaction |

Variants of: B2
Details: with flig_ecoli fliG, P0ABZ1

| Variant | effect of a mutation on the interaction |
| --- | --- |
| MGDSILSQAEIDALLNGDSEVKDEPTASVSGESDIRPYDPNTQRRVVRERLQALEIINERFARHFRMGLFNLLRRSPDITVGAIRIQPYHEFARNLPVPTNLNLIHLKPLRGTGLVVFSPSLVFIAVDNLFGGDGRFPTKVEGREFTHCEQRVINRMLKLALEGYSDAWKAINPLEVEYVRSEMQVKFTNITTSPNDIVVNTPFHVEIGNLTGEFNICLPFSMIEPLRELLVNPPLENSRNEDQNWRDNLVRQVQHSQLELVANFADISLRLSQILKLNPGDVLPIEKPDRIIAHVDGVPVLTSQYGTLNGQYALRIEHLINPILNSLNEEQPK [T149C] | increasing interaction |

Variants of: B2
Details: with flig_ecoli fliG, P0ABZ1
Remark: another data set of the same source

| Variant | effect of a mutation on the interaction |
| --- | --- |
| MGDSILSQAEIDALLNGDSEVKDEPTASVSGESDIRPYDPNTQRRVVRERLQALEIINERFARHFRMGLFNLLRRSPDITVGAIRIQPYHEFARNLPVPTNLNLIHLKPLRGTGLVVFSPSLVFIAVDNLCGGDGRFPTKVEGREFTHTEQRVINRMLKLALEGYSDAWKAINPLEVEYVRSEMQVKFTNITTSPNDIVVNTPFHVEIGNLTGEFNICLPFSMIEPLRELLVNPPLENSRNEDQNWRDNLVRQVQHSQLELVANFADISLRLSQILKLNPGDVLPIEKPDRIIAHVDGVPVLTSQYGTLNGQYALRIEHLINPILNSLNEEQPK [F131C] | increasing interaction |

Variants of: B2
Details: with flig_ecoli fliG
Remark: another data set of the same source

| Variant | effect of a mutation on the interaction |
| --- | --- |
| MGDSILSQAEIDALLNGDSEVKDEPTASVSGESDIRPYDPNTQRRVVRERLQALEIINERFARHFRMGLFNLLRRSPDITVGAIRIQPYHEFARNLPVPTNLNLIHLKPLRGTGLVVFSPSLVFIAVDNLFGGDGRFPTKVEGREFTHTEQRCINRMLKLALEGYSDAWKAINPLEVEYVRSEMQVKFTNITTSPNDIVVNTPFHVEIGNLTGEFNICLPFSMIEPLRELLVNPPLENSRNEDQNWRDNLVRQVQHSQLELVANFADISLRLSQILKLNPGDVLPIEKPDRIIAHVDGVPVLTSQYGTLNGQYALRIEHLINPILNSLNEEQPK [V153C] | increasing interaction |
